Experimental data taken from the DeepSol protein solubility set.

Test: soluble on expression in E. coli; label from the status in PepcDB or PDB records

Sequence	soluble on expression in E. coli
MAHHHHHHMASVDTQWAIKSILQLGHHHLRHGAETTSSSSSCLVRPTSPPFRSASKAVQVTAMPRLMRASCDPSYVILLAKRPSGIAGVSLRPGNRVPWTGLPAAASSLVSAPCSKKTRLLASYLQRRGFATIRPVATDTHSSPSQFRPVQRSMPLLLHTSHLIGWKLNDASPAFPVYAHTLAELQQLRSSDVAALKPQHCLIANEYCEWDNWREVLGEPGWDLFSADEDAVERLLQDGLAISALEEEAGLYPVEVL	not soluble
PQEKLKLLAFTGTKGKTTAAYFAYHMLKESYKPAMFSTMNTTLDGKTFFKSQLTTPESLDLFAMMAECVTNGMTHLIMEVSSQAYLVDRVYGLTFDVGVFLNISPDHIGPIEHPTFEDYFYHKRLLMENSRAVVINSGMDHFSFLADQVADQEHVFYGPLSDNQITTSQAFSFEAKGQLAGHYDIQLIGHFNQENAMAAGLACLRLGASLADIQKGIAKTRVPGR	not soluble
SAEKLFTPLKVGAVTAPNRVFMAPLTRLRSIEPGDIPTPLMGEYYRQRASAGLIISEATQISAQAKGYAGAPGLHSPEQIAAWKKITAGVHAEDGRIAVQLWHTGRISHSSIQPGGQAPVSASALNANTRTSLRDENGNAIRVDTTTPRALELDEIPGIVNDFRQAVANAREAGFDLVELHSAHGYLLHQFLSPSSNQRTDQYGGSVENRARLVLEVVDAVCNEWSADRIGIRVSPIGTFQNVDNGPNEEADALYLIEELAKRGIAYLHMSETDLAGGKPYSEAFRQKVRERFHGVIIGAGAYTAEKAEDLIGKGLIDAVAFGRDYIANPDLVARLQKKAELNPQRPESFYGGGAEGYTDYPSL	soluble
MKPLLDVLMILDAIEKEGSFAAASAKLYKTPSALSYTVHKLESDLNIQLLDRSGHRAKFTRTGKMLLEKGREVLHTVRELEKQAIKLHEGWENELVIGVDDTFPFSLLAPLIEAFYQHHSVTRLKFINGVLGGSWDALTQGRADIIVGAMHEPPSSSEFGFSRLGDLEQVFAVAPHHPLAQEEEPLNRRIIKRYRAIVVGDTAQAGASTASQLLDEQEAITVFDFKTKLELQISGLGCGYLPRYLAQRFLDSGALIEKKVVAQTLFEPVWIGWNEQTAGLASGWWRDEILANSAIAGVYAKSDDGKSAIQRKIIMTSLSFSCHFPPI	not soluble
MGSDKIHHHHHHMLESNPPKSLYRETAGGIGDYCALAGAQRARVAIVGGGFTGLSTALHLAEAGDDVAVLEAQQPGWGASGRNGGQVNPGLKYDPDTIEAMFGPELGPRMIDFSYGAPDFTFGLIKRLSIACDARQNGTIRAAIRPKPQAAVRTTAAQCQRRGMPVSMVDAQAMATRTGTGRYIAGMFDARGGDLHPLKYTIGLAAAARNASARIFGGSEVLSLKREAGRWVLKTANGSVSAEKVLVATNGYTGALWPGLEQSLVPVFSAIAATEPLAPAAAAQILPDRPVLYEAGNITVYYRIDAQNRLLMGGRGPMKPIGDASAIRYLTDYALRLWPALAGVRWTHGWNGRVAITKDHLLHIHEPEDGVLICLGYNGRGVAMASAMGAALAQRLQGRETSPFPMPISPLKPIRFHRFWPLGVKAAILSGRLKDRFGL	not soluble
MGHHHHHHSHMTITSGSSLPDGCEGRGLSVHTDMASVTKAMAAPESGLEVRDRMWLKITIPNAFLGSDVVDWLYHHVEGFPERREARKYASGLLKAGLIRHTVNKITFSEQCYYVFGDLSGGC	soluble
MNMAHTTTSMEIFGSPEQVWQLIGGFNSLPDWLPYIPSSKLTEGGRVRHLANPDGDTIIERLEVFNDKERYYTYSIMNAPFPVTNYLSTIQVKEGTESNTSLVEWSGTFTPVEVSDEEAINLFHGIYSDGLKALQQAFLDLEHHHHHH	soluble
MDKELIKKNIKLMDATIEKMIHVMSSIHKLQLSVKELEDSNELTVSYVKRECTKLEERVKELRPSISRCVFMYREYVEEFETKLRDRIVTEKFFRIKRFYGKEVLAFKEFQEKYQNYIPKDIIDIKKQVRQKLEEVGYEIDGAFEGDFTSWVGVYARPKDKPTYLDPANAEEVVLQEKYSVNGFKQDFSEWFEFEIKDNVVYGILEHHHHHH	soluble
MAVSHSVKERTISENSLIILLQGLQGRVTTVDLRDESVAHGRIDNVDAFMNIRLAKVTYTDRWGHQVKLDDLFVTGRNVRYVHIPDDVNITSTIEQQLQIIHRVRNFGGKGQGRWEFPPKNCK	not soluble
MSLDSKIDILIVVNMFLTGFDSKVLNTLYVDKNLMYHDLIQAYSRTNRVEKESKPFGKIVNYRDLKKETDDALRVFSQTNDTDTILMRSYEEYKKEFMDAYRELKMIVPTPHMVDDIQDEGHHHHHH	not soluble
